Source: US7067277 (H LUNDBECK A S, dated 2006)

Legend:
Assay in all cases: cell-based or functional assay
human 5HT1F receptor = molecular target: T1, human 5HT1F receptor (human, UniProt P30939 1-366)
T1 sequence (looked up): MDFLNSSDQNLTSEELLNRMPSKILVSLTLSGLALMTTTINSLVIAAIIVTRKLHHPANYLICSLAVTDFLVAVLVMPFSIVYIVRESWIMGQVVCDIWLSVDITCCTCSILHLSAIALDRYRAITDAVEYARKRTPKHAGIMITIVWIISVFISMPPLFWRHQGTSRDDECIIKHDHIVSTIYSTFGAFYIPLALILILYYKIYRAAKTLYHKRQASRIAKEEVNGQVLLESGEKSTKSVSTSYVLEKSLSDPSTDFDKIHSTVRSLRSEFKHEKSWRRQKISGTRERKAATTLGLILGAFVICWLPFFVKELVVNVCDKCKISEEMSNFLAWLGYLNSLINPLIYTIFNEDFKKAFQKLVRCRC

mouse 5HT5A receptor = mouse 5HT5A receptor (mouse, UniProt P30966 1-357)
rat GALR3 receptor = molecular target: T2, rat GALR3 receptor (rat, UniProt O88626 1-370)
T2 sequence (looked up): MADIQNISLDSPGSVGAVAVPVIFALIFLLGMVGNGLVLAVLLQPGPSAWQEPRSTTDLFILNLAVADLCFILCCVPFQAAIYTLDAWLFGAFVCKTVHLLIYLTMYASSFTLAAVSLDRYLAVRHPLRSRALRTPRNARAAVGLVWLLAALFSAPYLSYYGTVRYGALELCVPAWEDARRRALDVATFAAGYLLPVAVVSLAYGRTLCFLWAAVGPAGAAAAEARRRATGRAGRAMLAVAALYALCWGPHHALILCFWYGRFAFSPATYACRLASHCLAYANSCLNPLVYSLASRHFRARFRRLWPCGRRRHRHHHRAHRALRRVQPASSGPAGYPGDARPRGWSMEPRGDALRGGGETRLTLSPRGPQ

rat GALR1 receptor = molecular target: T3, rat GALR1 receptor (rat, UniProt Q62805 1-346)
T3 sequence (looked up): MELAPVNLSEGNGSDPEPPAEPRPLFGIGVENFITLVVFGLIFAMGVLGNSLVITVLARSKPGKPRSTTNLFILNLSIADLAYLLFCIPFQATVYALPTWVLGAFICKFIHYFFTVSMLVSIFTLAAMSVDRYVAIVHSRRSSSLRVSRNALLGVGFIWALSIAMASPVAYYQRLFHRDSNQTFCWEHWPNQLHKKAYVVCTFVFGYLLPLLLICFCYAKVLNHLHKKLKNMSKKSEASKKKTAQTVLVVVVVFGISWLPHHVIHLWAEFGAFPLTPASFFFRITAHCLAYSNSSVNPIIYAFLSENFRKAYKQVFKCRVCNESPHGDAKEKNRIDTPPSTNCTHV

[1] = molecular target: T4, human α2B adrenergic receptor (human, UniProt P18089 1-450)
T4 sequence (looked up): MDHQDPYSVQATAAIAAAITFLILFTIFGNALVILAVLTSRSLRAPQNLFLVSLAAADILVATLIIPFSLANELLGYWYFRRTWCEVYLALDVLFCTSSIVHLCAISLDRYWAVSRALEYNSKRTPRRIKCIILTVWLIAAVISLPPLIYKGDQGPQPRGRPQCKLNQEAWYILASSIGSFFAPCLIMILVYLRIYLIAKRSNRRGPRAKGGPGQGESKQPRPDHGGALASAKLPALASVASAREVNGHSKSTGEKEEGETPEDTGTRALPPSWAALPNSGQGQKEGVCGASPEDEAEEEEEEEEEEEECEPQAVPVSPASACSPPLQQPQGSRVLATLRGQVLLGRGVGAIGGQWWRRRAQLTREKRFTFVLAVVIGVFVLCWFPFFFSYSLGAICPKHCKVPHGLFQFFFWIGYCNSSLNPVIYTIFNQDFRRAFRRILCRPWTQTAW

human GALR2 receptor = molecular target: T5, human GALR2 receptor (human, UniProt O43603 1-387)
T5 sequence (looked up): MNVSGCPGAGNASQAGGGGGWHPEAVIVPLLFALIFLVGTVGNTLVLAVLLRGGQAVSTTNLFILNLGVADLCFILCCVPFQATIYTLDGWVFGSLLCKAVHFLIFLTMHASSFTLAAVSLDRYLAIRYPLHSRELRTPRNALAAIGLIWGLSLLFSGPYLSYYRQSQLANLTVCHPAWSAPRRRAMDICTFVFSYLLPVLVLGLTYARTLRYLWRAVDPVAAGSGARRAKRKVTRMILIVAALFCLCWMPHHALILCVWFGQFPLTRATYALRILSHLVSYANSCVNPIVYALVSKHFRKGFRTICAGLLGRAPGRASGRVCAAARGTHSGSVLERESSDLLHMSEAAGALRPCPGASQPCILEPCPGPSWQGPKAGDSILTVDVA

[2] = molecular target: human kappa opioid receptor (human, UniProt P41145 1-380)
human NPFF1 receptor = human NPFF1 receptor (human, UniProt Q9GZQ6 1-430)
human GALR1 receptor = molecular target: T6, human GALR1 receptor (human, UniProt P47211 1-349)
T6 sequence (looked up): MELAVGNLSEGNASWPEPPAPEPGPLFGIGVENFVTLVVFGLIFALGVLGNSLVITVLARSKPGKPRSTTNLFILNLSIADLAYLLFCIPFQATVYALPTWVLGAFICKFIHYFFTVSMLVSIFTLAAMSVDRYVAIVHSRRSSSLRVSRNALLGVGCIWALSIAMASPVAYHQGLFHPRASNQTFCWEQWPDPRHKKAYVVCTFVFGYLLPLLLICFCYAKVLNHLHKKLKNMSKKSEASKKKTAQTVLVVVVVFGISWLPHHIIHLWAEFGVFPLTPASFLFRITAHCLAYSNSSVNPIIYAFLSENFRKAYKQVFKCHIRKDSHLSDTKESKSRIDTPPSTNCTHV

rat NTR1 receptor = rat NTR1 receptor (rat, UniProt P20789 1-424)
Sequence of rat NTR1 receptor (P20789 whole entry): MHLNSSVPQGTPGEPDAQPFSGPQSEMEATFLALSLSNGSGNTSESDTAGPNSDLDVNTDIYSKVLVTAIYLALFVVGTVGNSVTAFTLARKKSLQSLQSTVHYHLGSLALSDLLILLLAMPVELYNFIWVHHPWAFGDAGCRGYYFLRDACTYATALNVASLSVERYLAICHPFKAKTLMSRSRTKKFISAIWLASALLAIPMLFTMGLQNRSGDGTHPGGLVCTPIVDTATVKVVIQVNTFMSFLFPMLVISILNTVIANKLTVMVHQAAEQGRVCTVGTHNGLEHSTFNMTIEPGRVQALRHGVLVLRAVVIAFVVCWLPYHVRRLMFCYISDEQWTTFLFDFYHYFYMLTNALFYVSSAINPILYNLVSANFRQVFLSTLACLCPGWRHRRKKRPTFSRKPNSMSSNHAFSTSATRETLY

Sequence of human NPFF1 receptor (Q9GZQ6 whole entry): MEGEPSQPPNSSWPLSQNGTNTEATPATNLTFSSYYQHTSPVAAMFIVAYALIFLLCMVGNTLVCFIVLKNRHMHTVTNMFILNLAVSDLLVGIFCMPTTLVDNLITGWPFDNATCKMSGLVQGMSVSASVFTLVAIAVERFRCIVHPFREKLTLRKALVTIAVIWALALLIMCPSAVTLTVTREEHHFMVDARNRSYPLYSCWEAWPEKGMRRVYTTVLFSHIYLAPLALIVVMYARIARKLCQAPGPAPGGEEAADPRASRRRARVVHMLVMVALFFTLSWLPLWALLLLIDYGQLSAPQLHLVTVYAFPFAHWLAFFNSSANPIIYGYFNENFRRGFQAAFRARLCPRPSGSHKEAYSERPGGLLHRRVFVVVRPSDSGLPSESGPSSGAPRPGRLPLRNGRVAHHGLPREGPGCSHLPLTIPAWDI
Sequence of mouse 5HT5A receptor (P30966 whole entry): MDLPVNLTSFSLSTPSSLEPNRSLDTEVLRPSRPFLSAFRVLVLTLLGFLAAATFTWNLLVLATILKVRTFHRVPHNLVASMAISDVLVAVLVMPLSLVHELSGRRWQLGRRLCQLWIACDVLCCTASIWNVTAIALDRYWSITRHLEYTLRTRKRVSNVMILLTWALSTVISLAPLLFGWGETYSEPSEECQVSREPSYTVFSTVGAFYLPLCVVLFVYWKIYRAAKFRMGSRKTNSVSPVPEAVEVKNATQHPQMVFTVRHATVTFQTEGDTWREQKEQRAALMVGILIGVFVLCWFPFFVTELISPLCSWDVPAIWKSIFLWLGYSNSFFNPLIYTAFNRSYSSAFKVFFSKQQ
Sequence of human kappa opioid receptor (P41145 whole entry): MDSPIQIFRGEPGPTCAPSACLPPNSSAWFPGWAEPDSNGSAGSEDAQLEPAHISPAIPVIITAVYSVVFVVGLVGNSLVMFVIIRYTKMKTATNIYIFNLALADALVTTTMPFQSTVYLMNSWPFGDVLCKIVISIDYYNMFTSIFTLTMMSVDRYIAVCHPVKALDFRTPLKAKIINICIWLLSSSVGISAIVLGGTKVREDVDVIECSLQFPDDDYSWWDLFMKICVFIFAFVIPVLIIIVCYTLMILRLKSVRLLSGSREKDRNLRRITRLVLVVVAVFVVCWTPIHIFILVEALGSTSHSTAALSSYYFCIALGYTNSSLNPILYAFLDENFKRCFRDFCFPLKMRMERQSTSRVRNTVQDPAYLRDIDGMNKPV

B1: C. elegans Gαq/z5 (other)
chain: MACCLSEEAREQKRINQEIEKQLQRDKRNARRELKLLLLGTGESGKSTFIKQMRIIHGQGYSEEDKRAHIRLVYQNVFMAIQSMIRAMDTLDIKFGNESEELQEKAAVVREVDFESVTSFEEPYVSYIKELWEDSGIQECYDRRREYQLTDSAKYYLSDLRRLAVPDYLPTEQDILRVRVPTTGIIEYPFDLEQIIFRMVDVGGQRSERRKWIHCFENVTSIMFLVALSEYDQVLVECDNENRMEESKALFRTIITYPWFTNSSVILFLNKKDLLEEKILYSHLADYFPEYDGPPRDPIAAREFILKMFVDLNPDADKIIYSHFTCATDTENIRFVFAAVKDTILQHNLKYIGLC
- max Ca2+ signal, COS-7, FLIPR; agonist 5HT (human 5HT1F receptor): 243 fluorescence units
- max Ca2+ signal, COS-7, FLIPR; agonist 5HT (mouse 5HT5A receptor): 351 fluorescence units
- max Ca2+ signal, COS-7, FLIPR; agonist GAL (rat GALR3 receptor): 2300 fluorescence units
- max Ca2+ signal, COS-7, FLIPR; agonist GAL (rat GALR1 receptor): 3090 fluorescence units
- max Ca2+ signal, COS-7, FLIPR; agonist NE [1]: 4980 fluorescence units
- max Ca2+ signal, COS-7, FLIPR; agonist GAL (human GALR2 receptor): 5470 fluorescence units
- max Ca2+ signal, COS-7, FLIPR; agonist U-69593 [2]: 5980 fluorescence units
- max Ca2+ signal, COS-7, FLIPR; agonist NPFF (human NPFF1 receptor): 6590 fluorescence units
- max Ca2+ signal, COS-7, FLIPR; agonist GAL (human GALR1 receptor): 7650 fluorescence units
- max Ca2+ signal, COS-7, FLIPR; agonist NT (rat NTR1 receptor): 14500 fluorescence units

B2: C. elegans Gαq/z9 (other)
chain: MACCLSEEAREQKRINQEIEKQLQRDKRNARRELKLLLLGTGESGKSTFIKQMRIIHGQGYSEEDKRAHIRLVYQNVFMAIQSMIRAMDTLDIKFGNESEELQEKAAVVREVDFESVTSFEEPYVSYIKELWEDSGIQECYDRRREYQLTDSAKYYLSDLRRLAVPDYLPTEQDILRVRVPTTGIIEYPFDLEQIIFRMVDVGGQRSERRKWIHCFENVTSIMFLVALSEYDQVLVECDNENRMEESKALFRTIITYPWFTNSSVILFLNKKDLLEEKILYSHLADYFPEYDGPPRDPIAAREFILKMFVDLNPDADKIIYSHFTCATDTENIRFVFAAVKDTILQNNLKYIGLC
- max Ca2+ signal, COS-7, FLIPR; agonist 5HT (human 5HT1F receptor): 384 fluorescence units
- max Ca2+ signal, COS-7, FLIPR; agonist 5HT (mouse 5HT5A receptor): 270 fluorescence units
- max Ca2+ signal, COS-7, FLIPR; agonist GAL (rat GALR3 receptor): 2970 fluorescence units
- max Ca2+ signal, COS-7, FLIPR; agonist GAL (rat GALR1 receptor): 5950 fluorescence units
- max Ca2+ signal, COS-7, FLIPR; agonist NE [1]: 5140 fluorescence units
- max Ca2+ signal, COS-7, FLIPR; agonist GAL (human GALR2 receptor): 4900 fluorescence units
- max Ca2+ signal, COS-7, FLIPR; agonist U-69593 [2]: 3470 fluorescence units
- max Ca2+ signal, COS-7, FLIPR; agonist NPFF (human NPFF1 receptor): 2970 fluorescence units
- max Ca2+ signal, COS-7, FLIPR; agonist GAL (human GALR1 receptor): 8490 fluorescence units
- max Ca2+ signal, COS-7, FLIPR; agonist NT (rat NTR1 receptor): 6110 fluorescence units

B3: Human Gαq/z5 (Ala→Ser substitution at position 171) (other)
chain: MTLESIMACCLSEEAKEARRINDEIERQLRRDKRDARRELKLLLLGTGESGKSTFIKQMRIIHGSGYSDEDKRGFTKLVYQNIFTAMQAMIRAMDTLKIPYKYEHNKAHAQLVREVDVEKVSAFENPYVDAIKSLWNDPGIQECYDRRREYQLSDSTKYYLNDLDRVADPSYLPTQQDVLRVRVPTTGIIEYPFDLQSVIFRMVDVGGQRSERRKWIHCFENVTSIMFLVALSEYDQVLVESDNENRMEESKALFRTIITYPWFQNSSVILFLNKKDLLEEKIMYSHLVDYFPEYDGPQRDAQAAREFILKMFVDLNPDSDKIIYSHFTCATDTENIRFVFAAVKDTILQLNLKYIGLC
- max Ca2+ signal, COS-7, FLIPR; agonist 5HT (human 5HT1F receptor): 0 fluorescence units
- max Ca2+ signal, COS-7, FLIPR; agonist 5HT (mouse 5HT5A receptor): 0 fluorescence units
- max Ca2+ signal, COS-7, FLIPR; agonist GAL (rat GALR3 receptor): 2800 fluorescence units
- max Ca2+ signal, COS-7, FLIPR; agonist GAL (rat GALR1 receptor): 82 fluorescence units
- max Ca2+ signal, COS-7, FLIPR; agonist NE [1]: 4520 fluorescence units
- max Ca2+ signal, COS-7, FLIPR; agonist GAL (human GALR2 receptor): 5990 fluorescence units
- max Ca2+ signal, COS-7, FLIPR; agonist U-69593 [2]: 7860 fluorescence units
- max Ca2+ signal, COS-7, FLIPR; agonist NPFF (human NPFF1 receptor): 4720 fluorescence units
- max Ca2+ signal, COS-7, FLIPR; agonist GAL (human GALR1 receptor): 4060 fluorescence units
- max Ca2+ signal, COS-7, FLIPR; agonist NT (rat NTR1 receptor): 11200 fluorescence units
